According to patent US20210292393A1 (published 2021):
Substitutions are numbered along the chain they refer to.

B1: anti-SARS-CoV-2 antibody 1081 (antibody, V domains shown)
VH: EVQLVQSGAEVKKPGESLKISCKRSGYSFTTYWIGWVRQMPGKGLEWMGSIYPGDSDTRYSPSFQGQVTISADKSISTAYLQWSSLKASDTAMYYCASQEVPGYYYYMDVWGKGTTVTVSS
VL: DIQMTQSPSSLSASVGDRVTITCRASQSISSYLHWYQQKPGKAPKLLIYAASSLQSGVPSRFSGSGSGTDFTLTISSLQPEDFATYYCQQTYSTHTWTFGQGTKVEIK
B2: anti-SARS-CoV-2 antibody 1091 (antibody, V domains shown)
VH: EVQLVESGGGLVKPGGSLRLSCAASGFPFITYSMNWVRQAPGKGLEWVSSISRNSDYIYYADSVRGRVTISRDNAENSLYLQMHSLRAEDTAVYYCARDVVRSGNYYIPRHGMDVWGRGTTVTVSS
VL: QSVLTQPPSASGTPGQRVTISCSGTSSNIGSNTVNWYQQLPETAPKLLIYGTDQRPSGVPDRFSGSKSGTSASLAISRLQSEDEADYYCATRDDSLSGPVFGGGTQLTVL
B3: anti-SARS-CoV-2 antibody 1193 (antibody, V domains shown)
VH: EVQLVESGGGLVQPGGSLRLSCAASGFTFSSYYMNWVRQAPGKGLEWVSYISSGSSIIYYADSVKGRFTISRDNAKNSLYLQMNSLRDEDTAVYYCARDSPLRYFDWQLGGGFDYWGQGTLVTVSS
VL: QSALTQPASVSGSPGQSITISCTGTSSDVGGYNYVSWYQQHPGKAPKLMIYDVSNRPSGVSNRFSGSKSGNTASLTISGLQAEDEADYYCSSYTSSSLWVFGGGTKLTVL
B4: antibody 365 (antibody, V domains shown)
VH: QVQLVESGGGVVQPGRSLRLSCAASGFNLSSYAMHWVRQASGKGLEWVSLISYDGSIKYYTDSVKGRFTVSGDNSKNTLFLQMNSLRPDDSALYYCVRGGVSGPNSFDMWGQGTTVTVSS
VL: DVVMTQSPLSLPVTLGQPASISCRSSQSLVYSDGNTYVNWFQQRPGQSPRRLIYKVSIRASGVPDRFSGSGSGTDFALKISRVEAEDVGVYYCMQGTHWPVTFGQGTKVEIK
B5: antibody 366 (antibody, V domains shown)
VH: QVQLVESGGGVVQPGRSLRLSCAASGFTFSSYAMHWVRQAPGKGLEWVAVISYDGSNKYYADSVKGRFTISRDNSKNTLYLQMNSLRAEDTAVYYCARGLVGYNWFDPWGQGTLVTVSS
VL: DIQMTQSPSSVSASVGDRVTITCRASQGISSWLAWYQQKPGKAPKLLIYAASSLQSGVPSRFSGSGSGTDFTLTISSLQPEDFATYYCQQANSFTFGPGTKVDIK
B6: antibody 367 (antibody, V domains shown)
VH: QVQLVQSGAEVKKPGASVKVSCKASGYTFTGYYIHWVRQAPGQGLEWMGWINPNSGGTIYAQKFQGRVTMTRDTSISTAYMELSRLTSDDTAVYSCAREPYYDILTGYYAPRRYFDYWGQGTLVTVSS
VL: B3 VL with G31S, Q39L, Y88F, S96R, L98T, W99Y, G103T, L107V
B7: antibody 372 (antibody, V domains shown)
VH: QVQLVESGGGVVQPGRSLRLSCAASGFTFSSYAMHWVRQAPGKGLEWVAVISYDGSNKYYADSVKGRFTISRDNSKNTLYLQMNSLRAEDTAVYYCARDLGTSALLWFGELFLNYGMDVWGQGTTVTVSS
VL: QSALTQPRSVSGSPGQSVTISCTGTSSDVGGYNYVSWYQQHPGKAPKLMIYDVSKRPSGVPDRFSGSKSGNTASLTISGLQAEDEADYYCCSYAGSPILVFGGGTKLTVL
B8: antibody 439 (antibody, V domains shown)
VH: QVQLVESGGGVVQPGRSLRLSCAASGFTFSSYAMHWVRQAPGKGLEWVAVISYDGSNKYYADSVKGRFTISRDNSKNTLYLQMNSLRAEDTAVYYCARPPRGGSYYPFDPWGQGTLVTVSS
VL: not shown
B9: antibody 446 (antibody, V domains shown)
VH: B8 VH with P100N, R101S, G103S, S104Y, Y105F, Y106G, P107Y, D109Q, P110H
VL: QSVLTQPPSVSGAPGQRVTISCTGSSSNIGAGYDVHWYQQLPGTAPKLLIYGNSNRPSGVPDRFSGSKSGTSASLAITGLQAEDEADYYCQSYDSSLSGFYVFGTGTKVTVL
B10: antibody 454 (antibody, V domains shown)
VH: B6 VH with V18L, T28I, I34M, N52S, I59K, T87R, T91S, S95Y, A110T, F115L
VL: B3 VL with G31D, A45V, N55H, S61T, Q81R, L98T, W99Y, G103T, L107V
B11: antibody 456 (antibody, V domains shown)
VH: QVQLQQWGAGLLKPSETLSLTCAVYGGSFSGYYWSWIRQPPGKGLEWIGEINHSGSTNYNPSLKSRVTISVDTSKNQFSLKLSSVTAADTAVYYCARDGSGSYYLSYYFDYWGQGTLVTVSS
VL: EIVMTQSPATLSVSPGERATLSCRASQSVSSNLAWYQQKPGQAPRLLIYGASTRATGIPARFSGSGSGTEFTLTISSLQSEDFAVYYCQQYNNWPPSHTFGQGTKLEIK
B12: antibody 470 (antibody, V domains shown)
VH: not shown
VL: B3 VL with G31S, Y34L, D52E, N55K, S91C, T94A, S95G, L98T, W99L
B13: antibody 475 (antibody, V domains shown)
VH: QVQLVESGGGVVQPGRSLRLSCAASGFTFSSYAMHWVRQAPGKGLEWVTFISHEGSNKYYADSVKGRFTISRDNSKNTLYLQMNSLRAEDTAVYYCARTFEYSSSSATGDFDYWGQGTLVTVSS
VL: QSVLTQPPSVSGAPGQRVTISCTGSSSNIGAGYDVHWYQQLPGTAPKLLIYGNSNRPSGVPDRFSGSKSGTSASLAITGLQAEDEADYYCQSYDSSLSGVVFGGGTKLTVL
B14: antibody 476 (antibody, V domains shown)
VH: QVQLVQSGSELKKPGASVKVSCKASGYTFTSYAMNWVRQAPGQGLEWMGWINTNTGNPTYAQGFTGRFVFSLDTSVSTAYLQISSLKAEDTGVYYCARDHELPNSSSWFGHFEYWGQGTLVTVSS
VL: SYELTQPPSVSVSPGQTARITCSGDALPKQYAYWYQQKAGQAPVLVIYKDSERRSGIPERFSGSSSGTTVTLTISGVQAEDEADYYCQSADSSGTSVVFGGGTKLTVL
B15: antibody 477 (antibody, V domains shown)
VH: QVQLVESGGGVVQPGRSLRLSCAASGITFSSYAMHWVRQAPGKGLEWVAVISYDGSDKYHADSVKGRFAISRDNSKNTLYLQMNSLRAEDTAVYYCAKDKGIAVAGTGWIRPDPEYYFDYWGQGTLVTVSS
VL: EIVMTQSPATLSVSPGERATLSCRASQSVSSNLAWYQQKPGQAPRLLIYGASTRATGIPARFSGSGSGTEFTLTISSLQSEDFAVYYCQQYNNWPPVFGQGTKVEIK
B16: antibody 480 (antibody, V domains shown)
VH: B8 VH with S56N, A97V, P99T, P100N, R101S, G103S, S104Y, Y106A, P107A, P110Y
VL: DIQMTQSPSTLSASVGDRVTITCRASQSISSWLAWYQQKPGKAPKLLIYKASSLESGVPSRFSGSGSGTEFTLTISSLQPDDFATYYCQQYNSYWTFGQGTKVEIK
B17: antibody 482 (antibody, V domains shown)
VH: EVQLVESGGGLVQPGGSLRLSCAASGFTFSSYWMTWVRQAPGKGLEWVANIKQDGSEKYYVDSVKGRFTISRDNAKNSLYLQMNSLRAEDTAVYYCARGVGSWYLGFDYWGQGTLVTVSS
VL: NFMLTQPHSVSESPGKTVTISCTGSSGSIASNYVQWYQQRPGSAPTTVIYEDNQRPSGVPDRFSGSIDSSSNSASLTISGLKTEDEADYYCQSYDGSSYVFGTGTKVTVL

biological target: spike protein of SARS-CoV-2 clinical isolate USA/WA/1/2020 (live virus) (SARS-CoV-2, UniProt P0DTC2 14-1273); assay: cell-based or functional assay

Point of comparison: B1, “Live Virus Neutralization IC50” value 4.6 µg/mL. Against it:
- B2 — 62-fold lower, 0.074 µg/mL
- B3 — 15-fold lower, 0.31 µg/mL

biological target: SARS-CoV-2 full-length spike protein on pseudotyped lentivirus (SARS-CoV-2, UniProt P0DTC2 14-1273); assay: cell-based or functional assay

Point of comparison: B1, “Pseudo-neutralization IC50” value 0.012 µg/mL. Against it:
- B2 — within 1.5-fold, 0.016 µg/mL
- B3 — 57-fold higher, 0.69 µg/mL

biological target: SARS-CoV-2 spike protein (wild type), spike protein trimer (SARS-CoV-2, UniProt P0DTC2 14-1208); assay: not given

Point of comparison: B2, Kd 0.054 nM. Against it:
- B1 — 1.7-fold higher, 0.093 nM
- B3 — 3.3-fold higher, 0.178 nM

biological target: SARS-CoV-2 full length spike protein (wild type), conjugated to beads (SARS-CoV-2, UniProt P0DTC2 14-1208); assay: not given

Point of comparison: B4, “binding signal, bead assay” value 533 fold over isotype. Against it:
- B5 — higher, 553 fold over isotype
- B6 — higher, 1090 fold over isotype
- B7 — higher, 823 fold over isotype

biological target: SARS-CoV-2 full length spike protein (wild type), expressed on the surface of transiently transfected CHO … (SARS-CoV-2, UniProt P0DTC2 14-1273); assay: not given

Point of comparison: B15, “median fluorescence intensity, fold over isotype control” value 30.7 fold over isotype. Against it:
- B8 — lower, 8.2 fold over isotype
- B9 — lower, 7.99 fold over isotype
- B10 — lower, 29.6 fold over isotype
- B11 — lower, 9.25 fold over isotype
- B12 — lower, 20.7 fold over isotype
- B13 — higher, 32.2 fold over isotype
- B14 — lower, 18.2 fold over isotype
- B16 — lower, 9.77 fold over isotype
- B17 — lower, 2.31 fold over isotype
